Data: patent publication US9115185

Legend:
[1] = biological target: HLA-DR2 (DRB1*0201 [sic]), purified from B-lymphoblastic cell line IWB (human); assay: competition with fluorescent HA 308-319 on purified HLA-DR2
[2] = biological target: T1, HLA-DR3 (DRB*0301), purified from B-lymphoblastic cell line HAR (human); assay: competition with fluorescent hsp65 3-13 on purified HLA-DR3
T1 chain: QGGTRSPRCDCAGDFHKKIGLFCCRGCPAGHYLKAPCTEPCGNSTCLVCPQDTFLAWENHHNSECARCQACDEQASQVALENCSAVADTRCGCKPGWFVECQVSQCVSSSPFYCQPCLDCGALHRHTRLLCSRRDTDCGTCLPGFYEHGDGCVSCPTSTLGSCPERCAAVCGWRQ

[3] = biological target: HLA-DR7 (DRB1*0701), purified from B-lymphoblastic cell line Pitout (human); assay: competition with fluorescent Ii 80-103 on purified HLA-DR7
[4] = biological target: HLA-DR1 (DRB*0101), purified from B-lymphoblastic cell line LG2.1 (human); assay: competition with fluorescent HA 308-319 on purified HLA-DR1
[5] = biological target: HLA-DR4 (DRB*0401), purified from B-lymphoblastic cell line BSM (human); assay: competition with fluorescent HA308-319 Y→F on purified HLA-DR4

B1: HPV16 E7 peptide 61-82, P03129 61-82 (peptide)
peptide: CDSTLRLCVQSTHVDIRTLEDL
modifications: not checked
With B1 as the binder, how does the IC50 [1] read?
Its IC50 is 15 µM.

What about the IC50 [2] of the same binder?
The IC50 was 65 µM.

B2: HPV16 E7 peptide 21-42, P03129 21-42 (peptide)
peptide: DLYCYEQLNDSSEEEDEIDGPA
modifications: not checked
B2 was tested. Which IC50 [1] did it give?
Its IC50 is 12 µM.

B3: HPV16 E7 peptide 77-98, P03129 77-98 (peptide)
peptide: RTLEDLLMGTLGIVCPICSQKP
modifications: not checked
What does the source list for B3?
IC50 [3]: 0.9 µM; IC50 [4]: 46 µM; IC50 [1]: 22 µM

B4: HPV16 E7 peptide 11-32, P03129 11-32 (peptide)
peptide: YMLDLQPETTDLYCYEQLNDSS
modifications: not checked
B4 was tested. Which IC50 [2] did it give?
The IC50 was 50 µM.

B5: HPV16 E2 peptide 301-330 (peptide)
peptide: LRYRFKKHCTLYTAVSSTWHWTGHNVKHKS
modifications: not checked
With B5 as the binder, how does the IC50 [5] read?
The IC50 was 10 µM.

B6: HPV16 E2 peptide 331-365 (peptide)
peptide: AIVTLTYDSEWQRDQFLSQVKIPKTITVSTGFMSI
modifications: not checked
Which results are given for B6?
IC50 [2]: 10 µM; IC50 [5]: 15 µM

B7: HPV16 E7 peptide 41-62, P03129 41-62 (peptide)
peptide: PAGQAEPDRAHYNIVTFCCKCD
modifications: not checked
With B7 as the binder, how does the IC50 [4] read?
The IC50 was 7.4 µM.

What about the IC50 [1] of the same binder?
Its IC50 is 50 µM.

What about the IC50 [2] of the same binder?
The IC50 was 55 µM.

What about the IC50 [5] of the same binder?
The IC50 was 38 µM.

B8: HPV16 E2 peptide 316-345 (peptide)
peptide: SSTWHWTGHNVKHKSAIVTLTYDSEWQRDQ
modifications: not checked
For B8, which IC50 [2] is on record?
The IC50 was 30 µM.

B9: HPV16 E7 peptide 71-92, P03129 71-92 (peptide)
peptide: STHVDIRTLEDLLMGTLGIVCP
modifications: not checked
For B9, which IC50 [4] is on record?
Its IC50 is 12 µM.

What about the IC50 [1] of the same binder?
Its IC50 is 2 µM.

B10: HPV16 E7 peptide 1-22, P03129 1-22 (peptide)
peptide: MHGDTPTLHEYMLDLQPETTDL
modifications: not checked
B10 was tested. Which IC50 [3] did it give?
Its IC50 is 7 µM.

What about the IC50 [1] of the same binder?
The IC50 was 10 µM.

What about the IC50 [2] of the same binder?
The IC50 was 0.8 µM.

What about the IC50 [5] of the same binder?
Its IC50 is 30 µM.

B11: HPV16 E2 peptide 271-300 (peptide)
peptide: FNSSHKGRINCNSNTTPIVHLKGDANTLKC
modifications: not checked
For B11, which IC50 [2] is on record?
Its IC50 is 37 µM.

B12: HPV16 E7 peptide 51-72, P03129 51-72 (peptide)
peptide: HYNIVTFCCKCDSTLRLCVQST
modifications: not checked
Which IC50 [3] does the source give for B12 here?
Its IC50 is 11 µM.

And the IC50 [4]?
The IC50 was 70 µM.

And the IC50 [2]?
The IC50 was 50 µM.
